± gives the standard deviation of the averaged measurements.
What follows are sequences tested on ATP (assay: switch fluorescence ratio, 500 uM ATP over buffer (Cy3 cluster intensity, sum of 5 cycles each) (fold (ratio)); higher = stronger signal-on switching upon ATP binding; sequences stand for … in TCGTCGGCAGCGTCAGATGTGTATAAGAGACAGTTTTTTTTTTTTTTTTTTTTTTTTT…TC). Conditions: aptamer strand: ATP DNA aptamer (quencher-CACCTGGGGGAGTATTGCGGAGGAAGG + anchor), 100 nM annealed; ATP concentration: 500 uM.
Procedure, shortened: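 For every switch-domain sequence, the fluorescence ratio is the mean of per-cluster values, each being summed target-cycle Cy3 intensity over summed buffer-cycle Cy3 intensity. Clusters outside 100-1000 RFU were excluded. On a modified Illumina MiSeq flow-cell, the Cy3-labelled switching-strand clusters were annealed to 100 nM quencher-labelled ATP aptamer, imaged in selection buffer and then after 15 min with 500 uM ATP at 22 °C. Five such cycles were run, with NaOH stripping and re-annealing between them.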
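Note: ATP exposure 15 min at 22 °C before imaging.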

Row | Sequence | switch fluorescence ratio
1 | GAGATTTGGA | 1.03 ± 0.029
2 | AAGTTTATCT | 0.989 ± 0.02
3 | TCGAGAGAAA | 1.01 ± 0.016
4 | TGGTGGCCCT | 1.01 ± 0.06
5 | AAAGTTGATT | 1.01 ± 0.03
6 | AATGAATGCA | 1.004 ± 0.0014
7 | TTACAGGGGA | 1.01 ± 0.044
8 | GCTAACCATT | 1.1 ± 0.15
9 | GGGGGTCAGC | 1 ± 0.025
10 | AAGGAGGGT | 0.9965 ± 0.0096
11 | TCAAGGGGTG | 1.034 ± 0.0082
12 | AATGACTAAT | 1.01 ± 0.017
13 | GGGTTCTATT | 1 ± 0.014
14 | CGAAGGCTGT | 1.003 ± 0.0095
15 | ATATTCCGTT | 0.968 ± 0.018
16 | CTGTTACGCA | 1.201 ± 0.0046
17 | GGGGCGAACG | 0.977 ± 0.04
18 | TGTGTTAAGG | 0.973 ± 0.011
19 | TTGAGTTTTG | 0.985 ± 0.031
20 | GGTCCTGGGC | 1.01 ± 0.013
21 | CTATGATATT | 0.947 ± 0.042
22 | GTGGATGGGA | 0.977 ± 0.015
23 | TCGGAGAGGA | 0.986 ± 0.016
24 | AGTATAGTAG | 0.983 ± 0.019
25 | GGAGGGAGCG | 1 ± 0.03

Row | Sequence | switch fluorescence ratio
26 | CGGGGGGGCA | 1 ± 0.038
27 | CCATGGTACG | 1.051 ± 0.01
28 | GGGGTTTTCC | 1.01 ± 0.014
29 | TGGGATGAGT | 1.007 ± 0.0081
30 | TTGATAGTTG | 1.01 ± 0.049
31 | TGTTAAGATA | 1.02 ± 0.092
32 | GTAATACGTG | 1.14 ± 0.041
33 | GGGTGTGGTA | 0.9967 ± 0.0096
34 | GAATCGTTTC | 0.996 ± 0.053
35 | TATTTTAATC | 1.04 ± 0.059
36 | TAAGAGGGTA | 0.974 ± 0.06
37 | ATCTGTCAAG | 0.9954 ± 0.0058
38 | GTTTATTCCT | 1.02 ± 0.044
39 | AGAGGAGGGT | 1.01 ± 0.017
40 | AGTCATTCTC | 0.9841 ± 0.003
41 | TTTCGTGGAC | 1.08 ± 0.015
42 | CCTTATTTCT | 1 ± 0.031
43 | AAATTGTCAA | 1.01 ± 0.05
44 | AGCAAGGGGC | 1.02 ± 0.023
45 | TCCATGTGCC | 1.14 ± 0.14
46 | GGGGGTTTAA | 1.02 ± 0.014
47 | CGTAAAAGAT | 1.04 ± 0.06
48 | TGAATTTTAG | 0.991 ± 0.01
49 | TTTTTTAGAT | 0.985 ± 0.022
50 | TCTGGGCCTT | 0.999 ± 0.023

Row | Sequence | switch fluorescence ratio
51 | CTTTGTCGGT | 1.03 ± 0.054
52 | TTCCAAAAGG | 1.02 ± 0.054
53 | ATCTGGTGCA | 1.055 ± 0.0059
54 | GGCTGTTAAG | 0.983 ± 0.0028
55 | AGAGTGGTCA | 0.988 ± 0.018
56 | TAGGTTGGGG | 1.005 ± 0.0065
57 | AAGTAAGTTG | 0.9806 ± 0.0064
58 | CTGAATTAAG | 0.99 ± 0.016
59 | TGAAAAGGGA | 1.01 ± 0.017
60 | TGATTTTAGG | 0.9832 ± 0.0061
61 | TTATTGTTGG | 0.974 ± 0.014
62 | TAGCTCGGGC | 1.03 ± 0.019
63 | GGGCAGCCTT | 0.99337 ± 0.0002
64 | GGGTGCGCGT | 0.977 ± 0.011
65 | AGGGTTTAAA | 1 ± 0.036
66 | TTTATCTATT | 1 ± 0.012
67 | GCGGCGTGTC | 1.028 ± 0.0083
68 | TAGTTGTAAA | 1.03 ± 0.075
69 | GGGCGGGCAG | 0.997 ± 0.026
70 | TCCAGGATAT | 1.03 ± 0.046
71 | TAATCGGCTC | 1 ± 0.03
72 | CTGATTGTGT | 0.9718 ± 0.0034
73 | CTGGTTAAGG | 0.957 ± 0.017
74 | AAGGCCTTCT | 0.994 ± 0.011
75 | TTTACTTTCC | 1.56 ± 0.16

Row | Sequence | switch fluorescence ratio
76 | TACATATTCG | 0.989 ± 0.041
77 | ATAGGGGCAT | 1 ± 0.025
78 | TTAAATTCGC | 0.999 ± 0.0094
79 | CGGGGTCTTC | 0.996 ± 0.012
80 | GCTTATCCTG | 0.982 ± 0.041
81 | AAGCTGTTAC | 1.6 ± 0.081
82 | AGGTACACCT | 1.08 ± 0.053
83 | ACTGGTGTTC | 1.019 ± 0.0094
84 | TTATTTAGGA | 0.989 ± 0.027
85 | GTGATACTGG | 1.04 ± 0.014
86 | ATTCCATGGT | 0.9909 ± 0.0052
87 | CAGGGGAGGG | 1.06 ± 0.09
88 | GAGGGGGATG | 0.979 ± 0.026
89 | CAATTTCAGC | 0.999 ± 0.025
90 | ATCAAGAGGG | 1.01 ± 0.014
91 | TGGTCCAGG | 1.15 ± 0.14
92 | TGCTCCTTCT | 1.09 ± 0.011
93 | GTTTTTTGTC | 1.03 ± 0.049
94 | TGAGTTATCG | 0.968 ± 0.033
95 | TTTAAATCGG | 0.979 ± 0.04
96 | ATGGGTTGTT | 1.01 ± 0.034
97 | TAGCGAAGTG | 0.929 ± 0.061
98 | CGTTTTATCA | 0.9914 ± 0.0074
99 | GCACACGGGG | 1.01 ± 0.07
100 | GCACTTTACG | 1.28 ± 0.06

Row | Sequence | switch fluorescence ratio
101 | TTGTCCCCGG | 1.58 ± 0.68
102 | ATGTTCGAGA | 0.9855 ± 0.0066
103 | TGTTTTGGG | 0.992 ± 0.042
104 | AGAAGTTTGG | 0.989 ± 0.012
105 | CCGGGGAACG | 1.08 ± 0.048
106 | GAGGGGAGGG | 1.04 ± 0.065
107 | GGCCGATGCA | 1.02 ± 0.021
108 | TTGGCCCGGC | 1.52 ± 0.72
109 | TGTGTAAGAG | 0.9867 ± 0.0063
110 | GCTCAACGGT | 0.9561 ± 0.0041
111 | AGGTCCGCGA | 2.62 ± 0.17
112 | AGGTTTTGCA | 0.991 ± 0.019
113 | ATTTTTTCCT | 1.03 ± 0.022
114 | GGGGTTGTAA | 0.9938 ± 0.0056
115 | GAGGGTCGTG | 0.9629 ± 0.0013
116 | CATATTGGGA | 0.996 ± 0.032
117 | TTTTGACAGG | 1.03 ± 0.011
118 | CTGTTTAAGG | 0.986 ± 0.013
119 | TGATTTTCGT | 1 ± 0.044
120 | AAGGAGCAGT | 0.985 ± 0.13
121 | TTTTGTCGCA | 0.9913 ± 0.0075
122 | ACGTTGCTTA | 1.007 ± 0.0052
123 | GTTTTTATTG | 0.992 ± 0.042
124 | CAGATTATGT | 1.01 ± 0.055
125 | TAGTGGAAAC | 0.9885 ± 0.0015

Row | Sequence | switch fluorescence ratio
126 | GCGTAGAATC | 1.02 ± 0.018
127 | ATTGGTATAT | 1.007 ± 0.0068
128 | GATGATTATG | 0.993 ± 0.011
129 | TCGGGTGTGA | 1.029 ± 0.0015
130 | CAGGGGTTGG | 1.02 ± 0.028
131 | TATCGGCGTG | 0.98796 ± 0.00031
132 | AGGTTCAGGC | 0.9821 ± 0.0086
133 | GTGGGTTAGG | 0.996 ± 0.031
134 | TTTTTTAATC | 1.02 ± 0.03
135 | AAAACGTATA | 1.07 ± 0.039
136 | TGTAGGAGGG | 0.993 ± 0.01
137 | GGGGAAAGTT | 0.988 ± 0.043
138 | CGTAGCTTTT | 1.82 ± 0.67
139 | GACCTATGGA | 0.997 ± 0.0037
140 | GAGTACCACT | 1.01 ± 0.078
141 | TGAGGAATGT | 1.0157 ± 0.00058
142 | ATACCAGGGG | 1.08 ± 0.19
143 | AGGGCGGGGA | 1.01 ± 0.058
144 | CTGGGTATTG | 0.971 ± 0.012
145 | GGGTCTTGGG | 0.9482 ± 0.008
146 | ATTTTGCGTG | 0.98 ± 0.029
147 | AGGGTTTAGC | 1.02 ± 0.032
148 | AAGTACGCTG | 1 ± 0.11
149 | AAGACGCTAA | 1.18 ± 0.026
150 | TTATGGAAGG | 1.03 ± 0.02

Row | Sequence | switch fluorescence ratio
151 | TATGAGTAAT | 0.9866 ± 0.0093
152 | TATATTGGGA | 0.992 ± 0.022
153 | TAAAGCGAGC | 1.03 ± 0.023
154 | AAGGTGTGTT | 1.08 ± 0.068
155 | GATTGGTAAT | 0.996 ± 0.028
156 | GCTATGAGTA | 0.9832 ± 0.0097
157 | GAGAGGGAGG | 0.979 ± 0.015
158 | GCTCTGTCGG | 1.02 ± 0.012
159 | TTATTATAGT | 1 ± 0.015
160 | TTGGGGCGCG | 0.989 ± 0.051
161 | GGGTTGAGGT | 0.9843 ± 0.0092
162 | GTTTTTGGTC | 0.974 ± 0.02
163 | GAGCAAAAAG | 1.05 ± 0.042
164 | AGTATAGGGT | 0.972 ± 0.029
165 | ATTAAGTTTG | 1 ± 0.031
166 | TAAAAGGAAT | 0.993 ± 0.018
167 | CTGCTAATAT | 1.73 ± 0.14
168 | TTTTTGCGTT | 0.976 ± 0.037
169 | GTTGAGGGGA | 1.01 ± 0.058
170 | TTTTCGGATG | 1.02 ± 0.028
171 | GGGCTTGGCG | 1.0275 ± 0.00013
172 | TCCGTTATTT | 1.021 ± 0.0092
173 | CATAGGGGAC | 0.978 ± 0.066
174 | GCAATTGGGA | 1.05 ± 0.017
175 | GGTTCAATCT | 0.9815 ± 0.0012

Row | Sequence | switch fluorescence ratio
176 | GTTTATAGAG | 1.01 ± 0.039
177 | CGCTTATGGA | 1.003 ± 0.0032
178 | CAATTCGTTA | 1.01 ± 0.0035
179 | ATAAGCGAAG | 0.993 ± 0.028
180 | CATGGCTAGT | 1 ± 0.011
181 | CAATATTTTT | 1 ± 0.015
182 | GCGGCTGGTT | 0.981 ± 0.05
183 | GTATTTTATT | 1.006 ± 0.0064
184 | GGGGCATGTA | 1 ± 0.019
185 | CAGATGACAG | 0.997 ± 0.012
186 | GGGATAGGCC | 1.02 ± 0.032
187 | TGGGGAACAC | 0.995 ± 0.043
188 | TTTTCGGACG | 1.03 ± 0.05
189 | TAGGCCTTAC | 1.43 ± 0.54
190 | GGGGGGCATA | 1.01 ± 0.012
191 | TTGGCATAAG | 1.16 ± 0.28
192 | TTCAGCGCGA | 1.14 ± 0.014
193 | TAGGACTAGA | 0.9597 ± 0.0039
194 | TTAGGATGTA | 1.005 ± 0.0095
195 | GCTGGGCACT | 1.01 ± 0.035
196 | CTTGCTGCTG | 0.972 ± 0.044
197 | GATTGACAAT | 1.03 ± 0.031
198 | GTCCCGGTTT | 1.02 ± 0.095
199 | GAGGGTGCAT | 0.987 ± 0.043
200 | AAAAGCTTTA | 0.983 ± 0.018
